# Experimental data as given in patent US12545899B2, “Luciferase enzymes for use with thermostable luciferins in bioluminescent assays” (Promega Corporation, priority 2018, dated 2026).
# Substitutions are numbered along the chain they refer to. In names and notes the source's numbering stands.
# B1: ATG-2890: SEQ ID NO: 13; I240L+H244W+Y254S+T344A+I396K (protein)
# chain: MADKNILYGPEPFYPLEDGTAGEQMFDALSRYAAIPGCIALTNAHTKENVLYEEFLKLSCRLAESFKKYGLKQNDTIAVCSENSLQFFLPVIASLYLGIIVAPVNDKYIERELIHSLGIVKPRIVFCSKNTFQKVLNVKSKLKSIETIIILDLNEDLGGYQCLNNFISQNSDSNLDVKKFKPYSFNRDDQVASIMFSSGTTGLPKGVMLTHKNIVARFSIAKDPTFGNAINPTSAILTVLPFHWGFGMMTTLGSFTCGFRVVLMHTFEEKLFLQSLQDYKVESTLLVPTLMAFLAKSALVEKYDLSHLKEIASGGAPLSKEIGEMVKKRFKLNFVRQGYGLTEATSAVLITPKGDAKPGSTGKIVPLHAVKVVDPTTGKILGPNEPGELYFKGPMKMKGYYNNEEATKAIIDNDGWLRSGDIAYYDNDGHFYIVDRLKSLIKYKGYQVAPAEIEGILLQHPYIVDAGVTGIPDEAAGELPAAGVVVQTGKYLNEQIVQDYVASQVSTAKWLRGGVKFLDEIPKGSTGKIDRKVLRQMLEKHTNGHHHHHHHH
# B2: C4610C10: SEQ ID NO: 65; H244W+T344A+1396K+S306P (protein)
# chain: B1 chain with L240I, S254Y, S306P
# B3: ATG-3549: SEQ ID NO: 14; H244W+T344A+I396K+V300G (protein)
# chain: B1 chain with L240I, S254Y, V300G
# B4: C4589D5: SEQ ID NO: 59; H244W+T344A+I396K+A40A+K107Q+S193T+A316S (protein)
# chain: B1 chain with K107Q, S193T, L240I, S254Y, A316S
# B5: ATG-3552: SEQ ID NO: 17; H244W+T344A+I396K+V300G+L305P+S306P (protein)
# chain: B1 chain with L240I, S254Y, V300G, L305F, S306P
# B6: C4588H8: SEQ ID NO: 58; H244W+T344A+I396K+K107Q+L305F (protein)
# chain: B1 chain with K107Q, L240I, S254Y, L305F
# B7: C4580B10: SEQ ID NO: 53; H244W+T344A+I396K+K107Q+S193T+V262A (protein)
# chain: B1 chain with K107Q, S193T, L240I, S254Y, V262A
# B8: ATG-2625: SEQ ID NO: 4; N74N+H244R+V300G+I396K (protein)
# chain: B1 chain with L240I, W244R, S254Y, V300G, A344T
# B9: ATG-2624: SEQ ID NO: 3; I240L+Y254S+T344A+I396K (protein)
# chain: B1 chain with W244H
# B10: C4604A11: SEQ ID NO: 62; H244W+T344A+I396K+I109M+A316S (protein)
# chain: B1 chain with I109M, L240I, S254Y, A316S
# B11: ATG-3553: SEQ ID NO: 18; H244W+T344A+I396K+L305P+S306P (protein)
# chain: B1 chain with L240I, S254Y, L305F, S306P
# B12: ATG-3550: SEQ ID NO: 15; H244W+T344A+I396K+V300G+L305F (protein)
# chain: B1 chain with L240I, S254Y, V300G, L305F
# B13: C4584D9: SEQ ID NO: 56; H244W+T344A+I396K+I109M+S193L+L294H (protein)
# chain: B1 chain with I109M, S193L, L240I, S254Y, L294H
# B14: ATG-3551: SEQ ID NO: 16; H244W+T344A+I396K+V300G+S306P (protein)
# chain: B1 chain with L240I, S254Y, V300G, S306P
# B15: C7573H3: SEQ ID NO: 70; H244W+T344A+I396K+S193A+N228D+L305F+S306P+I109V+A316W (protein)
# chain: B1 chain with L240I, S254Y, L305F, A344T, K396I
# Columns and labels:
# [1] = Purified enzyme activity of ATG-2890 with CS0280 (FIGS. 9C-9D); type: biochemical
# Procedure: (§1) FIG. 9A includes a representative graph assessing the activities of luciferase enzyme variants ATG-2877, ATG-2624, and ATG-2890 in the presence of 5,5-disubstituted luciferin analog substrate. Luciferin analog compounds were diluted from 50 mM to 20 mM in reaction buffer (either Bright-Glo™ or Detection Reagent buffer). […] Reagent compositions included 50 μl Reaction Buffer+ATP, which was combined with 50 μl diluted enzyme. Plates were incubated at room temp for 30 minutes to minimize background, and 5 μl of luciferin analog substrate was added to a final concentration of 1 mM. Plates were read before and after compound addition at 3 mins and 20 mins.
# [2] = Purified enzyme activity of ATG-2890 with CS0333 (FIGS. 9C-9D); type: biochemical
# Procedure: as §1
# [3] = E. coli lysate screen of epPCR/DNA shuffling variants with CS0333; type: biochemical; details: Detection Reagent, 1 mM ATP, 500 μM substrate, 3 mins
# Procedure: (§2) These experiments included lysing E. coli cells expressing each luciferase enzyme variant in Detection Reagent containing 1 mM ATP+500 μM substrate. The cell lysate was incubated at room temperature for 3 mins and luminescence was read. The raw luminescence reading was normalized to the on-plate luminescence of ATG-2889, which was used as a control in this screen.
# [4] = E. coli lysate screen of epPCR/DNA shuffling variants with CS0280; type: biochemical; details: Detection Reagent, 1 mM ATP, 500 μM substrate, 3 mins
# Procedure: as §2
# [5] = Effect of V300G, L305F, S306P on activity with CS0333 (FIG. 13); type: biochemical; details: 1 mM ATP; 100 nM to 1 mM substrate; Bright-Glo buffer
# Procedure: FIG. 13 includes a representative graph of the effects of amino acid substitutions V300G, L305F, and S306P on enzyme activity with the CS0333 analog. Reagent compositions included […]+1 mM ATP+100 nM to 1 mM substrate in Bright-Glo™ buffer.
# [6] = Inhibition of luciferase enzyme variants by dehydro-F-luciferin; type: biochemical; details: for resistance to inhibition by dehydro F-luciferin: 1 μM F-luciferin, 1 mM ATP (FIG. 26); for inhibition by dehydro-F-luciferin relative to Ppe variant (SEQ ID NO: 1): Detection reagent buffer or Bright-Glo buffer (FIGS. 20, 21)
# Procedure: Reagent compositions include 0.022 μM-366.97 μM Dehydro F-luciferin titration, 1 mM ATP, 1 μM F-luciferin, and 0.005 mg/ml enzyme. […] Both amino acid substitutions L305F and S306P conferred improved resistance to the inhibitor individually and in combination.
# [7] = Kinetic analysis of Ppe variant, ATG-3707, ATG-4117 with D/L-luciferin; type: biochemical
# Procedure: (§3) Kinetic tests of these luciferase enzyme variants were also conducted. […] Reagent compositions included 0.005 mg/ml luciferase enzyme variant+1 mM ATP, and 0.1 fM to 1 mM substrate in Bright-Glo™ (BG) or Detection Reagent (DR) buffers. The composition was incubated for 3 mins and read on GloMax® Multi+platform.
# (§4) Table 8 below includes representative results of kinetic analysis of the thermostable luciferase variants of Ppe (SEQ ID NO: 1), ATG-3707, and ATG-4117. The Ppe variant (SEQ ID NO: 1) was tested with D/L-luciferin, and ATG-3707, and ATG-4117 were tested with CS0280 and CS0333.
# [8] = Kinetic analysis of ATG-3707, ATG-4117 with CS0333; type: biochemical
# Procedure: as §3, §4
# [9] = Kinetic analysis of ATG-3707, ATG-4117 with CS0280; type: biochemical
# Procedure: as §3, §4
# [10] = Differential scanning fluorimetry (DSF) analysis; type: physicochemical; design: key to DSF Tm: melting temperature in °C (heated 30-95 °C at 1 °C/min); details: Table 7A
# Summary of the method: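 Thermal melt with 5× final Sypro Orange: ramp 1° C/min from 30 to 95° C, reading each 60 s, derivative of fluorescence plotted by temperature. Luciferase variants were in 20 mM HEPES pH 7.5, 200 mM NaCl, 1 mM EDTA; other enzymes in 50 mM HEPES pH 7.5, 100 mM NaCl, 2 mM EDTA.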
# [11] = Brightness of additional luciferase enzyme variants with CS0280; type: biochemical; details: Table 7A, 1 mM CS0280
# Summary of the method: (§5)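 Each variant at 0.005 mg/ml combined with 1 mM ATP plus 1 mM substrate in Bright-Glo or Detection Reagent buffer; luminescence recorded as relative brightness.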
# [12] = Brightness of additional luciferase enzyme variants with CS0333; type: biochemical; details: Table 7A, 1 mM CS0333
# Summary of the method: as §5
molecule,measurement,setting,value
B1,increase in activity with CS0280 compared to Ppe variant (SEQ ID NO: 1),[1]; Bright-Glo Buffer,120 fold
same,increase in activity with CS0280 compared to Ppe variant (SEQ ID NO: 1),[1]; Detection Buffer,6 fold
same,increase in activity with CS0333 compared to Ppe variant (SEQ ID NO: 1),[2]; Bright-Glo Buffer,"1,470 fold"
same,increase in activity with CS0333 compared to Ppe variant (SEQ ID NO: 1),[2]; Detection Buffer,"3,050 fold"
B2,Normalized luminescence (Mutant RLU/ATG2889 RLU) with CS0333,[3],4.32
same,Normalized luminescence (Mutant RLU/ATG2889 RLU) with CS0280,[4],3.60
B3,activity with CS0333 relative to Ppe variant (SEQ ID NO: 1),[5],improved activity
B4,Normalized luminescence (Mutant RLU/ATG2889 RLU) with CS0333,[3],3.79
same,Normalized luminescence (Mutant RLU/ATG2889 RLU) with CS0280,[4],12.42
B5,activity with CS0333 relative to Ppe variant (SEQ ID NO: 1),[5],improved activity
same,resistance to inhibition by dehydro F-luciferin,[6],conferred resistance to inhibition by dehydro F-luciferin
B6,Normalized luminescence (Mutant RLU/ATG2889 RLU) with CS0333,[3],3.90
same,Normalized luminescence (Mutant RLU/ATG2889 RLU) with CS0280,[4],6.56
B7,Normalized luminescence (Mutant RLU/ATG2889 RLU) with CS0333,[3],4.64
same,Normalized luminescence (Mutant RLU/ATG2889 RLU) with CS0280,[4],9.35
B8,inhibition by dehydro-F-luciferin relative to Ppe variant (SEQ ID NO: 1),[6],"inhibited by dehydro-F-luciferin, but less so"
B9,inhibition by dehydro-F-luciferin relative to Ppe variant (SEQ ID NO: 1),[6],"inhibited by dehydro-F-luciferin, but less so"
B10,Normalized luminescence (Mutant RLU/ATG2889 RLU) with CS0333,[3],2.41
same,Normalized luminescence (Mutant RLU/ATG2889 RLU) with CS0280,[4],12.16
B11,activity with CS0333 relative to Ppe variant (SEQ ID NO: 1),[5],improved activity
same,resistance to inhibition by dehydro F-luciferin,[6],conferred resistance to inhibition by dehydro F-luciferin
B12,activity with CS0333 relative to Ppe variant (SEQ ID NO: 1),[5],highest activity
same,resistance to inhibition by dehydro F-luciferin,[6],conferred resistance to inhibition by dehydro F-luciferin
B13,Normalized luminescence (Mutant RLU/ATG2889 RLU) with CS0333,[3],2.67
same,Normalized luminescence (Mutant RLU/ATG2889 RLU) with CS0280,[4],12.41
B14,activity with CS0333 relative to Ppe variant (SEQ ID NO: 1),[5],improved activity
same,resistance to inhibition by dehydro F-luciferin,[6],conferred resistance to inhibition by dehydro F-luciferin
B15,Km,[7]; BrightGlo,0.0702 µM
same,Vmax (RLU),[7]; BrightGlo,"719,605 RLU"
same,Km,[7]; Detection Reagent,2.65 µM
same,Vmax (RLU),[7]; Detection Reagent,"817,287 RLU"
same,Km,[8]; BrightGlo,12.4 µM
same,Vmax (RLU),[8]; BrightGlo,"1,601,921 RLU"
same,Km,[8]; Detection Reagent,758 µM
same,Vmax (RLU),[8]; Detection Reagent,"124,964 RLU"
same,Km,[9]; BrightGlo,13 µM
same,Vmax (RLU),[9]; BrightGlo,"7,188,109 RLU"
same,Km,[9]; Detection Reagent,419 µM
same,Vmax (RLU),[9]; Detection Reagent,"7,879,793 RLU"
same,DSF Tm,[10],61
same,"Fold-improvement over ATG3707, CS0280 BG",[11]; Bright-Glo buffer,6.04
same,"Fold-improvement over ATG3707, CS0280 DR",[11]; Detection Reagent buffer,7.48
same,"Fold-improvement over ATG3707, CS0333 BG",[12]; Bright-Glo buffer,4.35
same,"Fold-improvement over ATG3707, CS0333 DR",[12]; Detection Reagent buffer,3.36
